# Measured values published in IntAct's records for PubMed 19850040.
# B1: Post-transcriptional regulator MTA (Human herpesvirus 8), Q2HR75 (parent)
# chain: MVQAMIDMDIMKGILEDSVSSSEFDESRDDETDAPTLEDEQLSEPAEPPADERIRGTQSAQGIPPPLGRIPKKSQGRSQLRSEIQFCSPLSRPRSPSPVNRYGKKIKFGTAGQNTRPPPEKRPRRRPRDRLQYGRTTRGGQCRAAPKRATRRPQVNCQRQDDDVRQGVSDAVKKLRLPASMIIDGESPRFDDSIIPRHHGACFNVFIPAPPSHVPEVFTDRDITALIRAGGKDDELINKKISAKKIDHLHRQMLSFVTSRHNQAYWVSCRRETAAAGGLQTLGAFVEEQMTWAQTVVRHGGWFDEKDIDIILDTAIFVCNAFVTRFRLLHLSCVFDKQSELALIKQVAYLVAMGNRLVEACNLLGEVKLNFRGGLLLAFVLTIPGMQSRRSISARGQELFRTLLEYYRPGDVMGLLNVIVMEHHSLCRNSECAAATRAAMGSAKFNKGLFFYPLS
# Variants of: B1
# Details: with thoc4_human ALYREF
row,Variant,effect of a mutation on the interaction
1,MVQAMIDMDIMKGILEDSVSSSEFDESRDDETDAPTLEDEQLSEPAEPPADERIRGTQSAQGIPPPLGRIPKKSQGRSQLRSEIQFCSPLSRPRSPSPVNRYGKKIKFGTAGQNTRPPPEKRPRRRPRDRLQYGRTTRGGQCRAAPKRATRGPQVNCQRQDDDVRQGVSDAVKKLRLPASMIIDGESPRFDDSIIPRHHGACFNVFIPAPPSHVPEVFTDRDITALIRAGGKDDELINKKISAKKIDHLHRQMLSFVTSRHNQAYWVSCRRETAAAGGLQTLGAFVEEQMTWAQTVVRHGGWFDEKDIDIILDTAIFVCNAFVTRFRLLHLSCVFDKQSELALIKQVAYLVAMGNRLVEACNLLGEVKLNFRGGLLLAFVLTIPGMQSRRSISARGQELFRTLLEYYRPGDVMGLLNVIVMEHHSLCRNSECAAATRAAMGSAKFNKGLFFYPLS [R152G],disrupting interaction
2,MVQAMIDMDIMKGILEDSVSSSEFDESRDDETDAPTLEDEQLSEPAEPPADERIRGTQSAQGIPPPLGRIPKKSQGRSQLRSEIQFCSPLSRPRSPSPVNRYGKKIKFGTAGQNTRPPPEKRPRRRPRDRLQYGRTTRGGQCDAAPKRATRRPQVNCQRQDDDVRQGVSDAVKKLRLPASMIIDGESPRFDDSIIPRHHGACFNVFIPAPPSHVPEVFTDRDITALIRAGGKDDELINKKISAKKIDHLHRQMLSFVTSRHNQAYWVSCRRETAAAGGLQTLGAFVEEQMTWAQTVVRHGGWFDEKDIDIILDTAIFVCNAFVTRFRLLHLSCVFDKQSELALIKQVAYLVAMGNRLVEACNLLGEVKLNFRGGLLLAFVLTIPGMQSRRSISARGQELFRTLLEYYRPGDVMGLLNVIVMEHHSLCRNSECAAATRAAMGSAKFNKGLFFYPLS [R143D],disrupting interaction
3,MVQAMIDMDIMKGILEDSVSSSEFDESRDDETDAPTLEDEQLSEPAEPPADERIRGTQSAQGIPPPLGRIPKKSQGRSQLRSEIQFCSPLSRPRSPSPVNRYGKKIKFGTAGQNTRPPPEKSPRRRPRDRLQYGRTTRGGQCRAAPKRATRRPQVNCQRQDDDVRQGVSDAVKKLRLPASMIIDGESPRFDDSIIPRHHGACFNVFIPAPPSHVPEVFTDRDITALIRAGGKDDELINKKISAKKIDHLHRQMLSFVTSRHNQAYWVSCRRETAAAGGLQTLGAFVEEQMTWAQTVVRHGGWFDEKDIDIILDTAIFVCNAFVTRFRLLHLSCVFDKQSELALIKQVAYLVAMGNRLVEACNLLGEVKLNFRGGLLLAFVLTIPGMQSRRSISARGQELFRTLLEYYRPGDVMGLLNVIVMEHHSLCRNSECAAATRAAMGSAKFNKGLFFYPLS [R122S],disrupting interaction
4,MVQAMIDMDIMKGILEDSVSSSEFDESRDDETDAPTLEDEQLSEPAEPPADERIRGTQSAQGIPPPLGRIPKKSQGRSQLRSEIQFCSPLSRPRSPSPVNRYGKKIKFGTAGQNTRPPPEMRPRRRPRDRLQYGRTTRGGQCRAAPKRATRRPQVNCQRQDDDVRQGVSDAVKKLRLPASMIIDGESPRFDDSIIPRHHGACFNVFIPAPPSHVPEVFTDRDITALIRAGGKDDELINKKISAKKIDHLHRQMLSFVTSRHNQAYWVSCRRETAAAGGLQTLGAFVEEQMTWAQTVVRHGGWFDEKDIDIILDTAIFVCNAFVTRFRLLHLSCVFDKQSELALIKQVAYLVAMGNRLVEACNLLGEVKLNFRGGLLLAFVLTIPGMQSRRSISARGQELFRTLLEYYRPGDVMGLLNVIVMEHHSLCRNSECAAATRAAMGSAKFNKGLFFYPLS [K121M],disrupting interaction
5,MVQAMIDMDIMKGILEDSVSSSEFDESRDDETDAPTLEDEQLSEPAEPPADERIRGTQSAQGIPPPLGRIPKKSQGRSQLRSEIQFCSPLSRPRSPSPVNRYGKKIKFGTAGQNTRPPPEKRPRRRPRDGLQYGRTTRGGQCRAAPKRATRRPQVNCQRQDDDVRQGVSDAVKKLRLPASMIIDGESPRFDDSIIPRHHGACFNVFIPAPPSHVPEVFTDRDITALIRAGGKDDELINKKISAKKIDHLHRQMLSFVTSRHNQAYWVSCRRETAAAGGLQTLGAFVEEQMTWAQTVVRHGGWFDEKDIDIILDTAIFVCNAFVTRFRLLHLSCVFDKQSELALIKQVAYLVAMGNRLVEACNLLGEVKLNFRGGLLLAFVLTIPGMQSRRSISARGQELFRTLLEYYRPGDVMGLLNVIVMEHHSLCRNSECAAATRAAMGSAKFNKGLFFYPLS [R130G],disrupting interaction
6,MVQAMIDMDIMKGILEDSVSSSEFDESRDDETDAPTLEDEQLSEPAEPPADERIRGTQSAQGIPPPLGRIPKKSQGRSQLRSEIQFCSPLSRPRSPSPVNRYGKKIKFGTAGQNTRPPPEKRPRGRPRDRLQYGRTTRGGQCRAAPKRATRRPQVNCQRQDDDVRQGVSDAVKKLRLPASMIIDGESPRFDDSIIPRHHGACFNVFIPAPPSHVPEVFTDRDITALIRAGGKDDELINKKISAKKIDHLHRQMLSFVTSRHNQAYWVSCRRETAAAGGLQTLGAFVEEQMTWAQTVVRHGGWFDEKDIDIILDTAIFVCNAFVTRFRLLHLSCVFDKQSELALIKQVAYLVAMGNRLVEACNLLGEVKLNFRGGLLLAFVLTIPGMQSRRSISARGQELFRTLLEYYRPGDVMGLLNVIVMEHHSLCRNSECAAATRAAMGSAKFNKGLFFYPLS [R125G],disrupting interaction
7,MVQAMIDMDIMKGILEDSVSSSEFDESRDDETDAPTLEDEQLSEPAEPPADERIRGTQSAQGIPPPLGRIPKKSQGRSQLRSEIQFCSPLSRPRSPSPVNRYGKKIKFGTAGQNTRPPPEKRPRREPRDRLQYGRTTRGGQCRAAPKRATRRPQVNCQRQDDDVRQGVSDAVKKLRLPASMIIDGESPRFDDSIIPRHHGACFNVFIPAPPSHVPEVFTDRDITALIRAGGKDDELINKKISAKKIDHLHRQMLSFVTSRHNQAYWVSCRRETAAAGGLQTLGAFVEEQMTWAQTVVRHGGWFDEKDIDIILDTAIFVCNAFVTRFRLLHLSCVFDKQSELALIKQVAYLVAMGNRLVEACNLLGEVKLNFRGGLLLAFVLTIPGMQSRRSISARGQELFRTLLEYYRPGDVMGLLNVIVMEHHSLCRNSECAAATRAAMGSAKFNKGLFFYPLS [R126E],disrupting interaction
8,MVQAMIDMDIMKGILEDSVSSSEFDESRDDETDAPTLEDEQLSEPAEPPADERIRGTQSAQGIPPPLGRIPKKSQGRSQLRSEIQFCSPLSRPRSPSPVNRYGKKIKFGTAGQNTRPPPEKRPRRRPSDRLQYGRTTRGGQCRAAPKRATRRPQVNCQRQDDDVRQGVSDAVKKLRLPASMIIDGESPRFDDSIIPRHHGACFNVFIPAPPSHVPEVFTDRDITALIRAGGKDDELINKKISAKKIDHLHRQMLSFVTSRHNQAYWVSCRRETAAAGGLQTLGAFVEEQMTWAQTVVRHGGWFDEKDIDIILDTAIFVCNAFVTRFRLLHLSCVFDKQSELALIKQVAYLVAMGNRLVEACNLLGEVKLNFRGGLLLAFVLTIPGMQSRRSISARGQELFRTLLEYYRPGDVMGLLNVIVMEHHSLCRNSECAAATRAAMGSAKFNKGLFFYPLS [R128S],disrupting interaction
9,MVQAMIDMDIMKGILEDSVSSSEFDESRDDETDAPTLEDEQLSEPAEPPADERIRGTQSAQGIPPPLGRIPKKSQGRSQLRSEIQFCSPLSRPRSPSPVNRYGKKIKFGTAGQNTRPPPEKRPRRRPRDRLQYGRTTRGGQCRAAPKRATDRPQVNCQRQDDDVRQGVSDAVKKLRLPASMIIDGESPRFDDSIIPRHHGACFNVFIPAPPSHVPEVFTDRDITALIRAGGKDDELINKKISAKKIDHLHRQMLSFVTSRHNQAYWVSCRRETAAAGGLQTLGAFVEEQMTWAQTVVRHGGWFDEKDIDIILDTAIFVCNAFVTRFRLLHLSCVFDKQSELALIKQVAYLVAMGNRLVEACNLLGEVKLNFRGGLLLAFVLTIPGMQSRRSISARGQELFRTLLEYYRPGDVMGLLNVIVMEHHSLCRNSECAAATRAAMGSAKFNKGLFFYPLS [R151D],disrupting interaction
10,MVQAMIDMDIMKGILEDSVSSSEFDESRDDETDAPTLEDEQLSEPAEPPADERIRGTQSAQGIPPPLGRIPKKSQGRSQLRSEIQFCSPLSRPRSPSPVNRYGKKIKFGTAGQNTRPPPEKRPRRRPRDRLQYGRTTRGGQCRAAPKQATRRPQVNCQRQDDDVRQGVSDAVKKLRLPASMIIDGESPRFDDSIIPRHHGACFNVFIPAPPSHVPEVFTDRDITALIRAGGKDDELINKKISAKKIDHLHRQMLSFVTSRHNQAYWVSCRRETAAAGGLQTLGAFVEEQMTWAQTVVRHGGWFDEKDIDIILDTAIFVCNAFVTRFRLLHLSCVFDKQSELALIKQVAYLVAMGNRLVEACNLLGEVKLNFRGGLLLAFVLTIPGMQSRRSISARGQELFRTLLEYYRPGDVMGLLNVIVMEHHSLCRNSECAAATRAAMGSAKFNKGLFFYPLS [R148Q],disrupting interaction
11,MVQAMIDMDIMKGILEDSVSSSEFDESRDDETDAPTLEDEQLSEPAEPPADERIRGTQSAQGIPPPLGRIPKKSQGRSQLRSEIQFCSPLSRPRSPSPVNRYGKKIKFGTAGQNTRPPPEKRPQRRPRDRLQYGRTTRGGQCRAAPKRATRRPQVNCQRQDDDVRQGVSDAVKKLRLPASMIIDGESPRFDDSIIPRHHGACFNVFIPAPPSHVPEVFTDRDITALIRAGGKDDELINKKISAKKIDHLHRQMLSFVTSRHNQAYWVSCRRETAAAGGLQTLGAFVEEQMTWAQTVVRHGGWFDEKDIDIILDTAIFVCNAFVTRFRLLHLSCVFDKQSELALIKQVAYLVAMGNRLVEACNLLGEVKLNFRGGLLLAFVLTIPGMQSRRSISARGQELFRTLLEYYRPGDVMGLLNVIVMEHHSLCRNSECAAATRAAMGSAKFNKGLFFYPLS [R124Q],disrupting interaction
12,MVQAMIDMDIMKGILEDSVSSSEFDESRDDETDAPTLEDEQLSEPAEPPADERIRGTQSAQGIPPPLGRIPKKSQGRSQLRSEIQFCSPLSRPRSPSPVNRYGKKIKFGTAGQNTRPPPEKRPRRRPRDRLQYGRTTRGGQCRAAPERATRRPQVNCQRQDDDVRQGVSDAVKKLRLPASMIIDGESPRFDDSIIPRHHGACFNVFIPAPPSHVPEVFTDRDITALIRAGGKDDELINKKISAKKIDHLHRQMLSFVTSRHNQAYWVSCRRETAAAGGLQTLGAFVEEQMTWAQTVVRHGGWFDEKDIDIILDTAIFVCNAFVTRFRLLHLSCVFDKQSELALIKQVAYLVAMGNRLVEACNLLGEVKLNFRGGLLLAFVLTIPGMQSRRSISARGQELFRTLLEYYRPGDVMGLLNVIVMEHHSLCRNSECAAATRAAMGSAKFNKGLFFYPLS [K147E],disrupting interaction

# Variants of: B1
# Details: with thoc4_human ALYREF
# Remark: another data set of the same source
row,Variant,effect of a mutation on the interaction
1,MVQAMIDMDIMKGILEDSVSSSEFDESRDDETDAPTLEDEQLSEPAEPPADERIRGTQSAQGIPPPLGRIPKKSQGRSQLRSEIQFCSPLSRPRSPSPVNSYGKKIKFGTAGQNTRPPPEKRPRRRPRDRLQYGRTTRGGQCRAAPKRATRRPQVNCQRQDDDVRQGVSDAVKKLRLPASMIIDGESPRFDDSIIPRHHGACFNVFIPAPPSHVPEVFTDRDITALIRAGGKDDELINKKISAKKIDHLHRQMLSFVTSRHNQAYWVSCRRETAAAGGLQTLGAFVEEQMTWAQTVVRHGGWFDEKDIDIILDTAIFVCNAFVTRFRLLHLSCVFDKQSELALIKQVAYLVAMGNRLVEACNLLGEVKLNFRGGLLLAFVLTIPGMQSRRSISARGQELFRTLLEYYRPGDVMGLLNVIVMEHHSLCRNSECAAATRAAMGSAKFNKGLFFYPLS [R101S],disrupting interaction
